Reference: patent US20140044730A1

Columns and labels:
[1] = target: human PCSK9 with a C-terminal myc-myc-hexahistidine tag (human) (UniProt Q8NBP7); assay: SPR (Biacore), 37 °C; antibody captured on anti-human Fc surface, hPCSK9-mmH injected (3.125-50 nM); association at pH 7.4, dissociation at pH 5.75
[2] = target: human PCSK9 with a C-terminal myc-myc-hexahistidine tag (human) (UniProt Q8NBP7); assay: SPR 25C pH 6.0, purified mAb captured
[3] = target: human PCSK9 with a C-terminal myc-myc-hexahistidine tag (human) (UniProt Q8NBP7); assay: blocking ELISA pH 7.2, 500 pM hPCSK9-mmH vs coated hLDLR EGFA-hFc
[4] = target: human PCSK9 with a C-terminal myc-myc-hexahistidine tag (human) (UniProt Q8NBP7); assay: SPR 25C, purified mAb captured
[5] = target: human PCSK9 with a C-terminal myc-myc-hexahistidine tag (human) (UniProt Q8NBP7); assay: SPR (Biacore), 37 °C; antibody captured on anti-human Fc surface, hPCSK9-mmH injected (3.125-50 nM); association at pH 7.4, dissociation at pH 6.0
[6] = target: human PCSK9 with a C-terminal myc-myc-hexahistidine tag (human) (UniProt Q8NBP7); assay: SPR (Biacore), 37 °C; antibody captured on anti-human Fc surface, hPCSK9-mmH injected (3.125-50 nM); association at pH 7.4, dissociation at pH 7.2
[7] = target: human PCSK9 with a C-terminal myc-myc-hexahistidine tag (human) (UniProt Q8NBP7); assay: blocking ELISA pH 5.75, 500 pM hPCSK9-mmH vs coated hLDLR EGFA-hFc
[8] = target: human PCSK9 with a C-terminal myc-myc hexahistidine tag and a D374Y mutation (human) (UniProt Q8NBP7); assay: cell-based or functional assay
[9] = target: recombinant cynomolgus monkey PCSK9 with a C-terminal myc-myc hexahistidine tag (cynomolgus monkey); assay: cell-based or functional assay
[10] = target: human PCSK9 with a C-terminal myc-myc-hexahistidine tag (human) (UniProt Q8NBP7); assay: cell-based or functional assay
[11] = target: human PCSK9 with a C-terminal myc-myc-hexahistidine tag (human) (UniProt Q8NBP7); assay: SPR 25C pH 7.4, purified mAb captured
[12] = target: human PCSK9 with a C-terminal myc-myc-hexahistidine tag (human) (UniProt Q8NBP7); assay: blocking ELISA, hPCSK9-mmH vs coated hLDLR EGFA-hFc
[13] = target: human PCSK9 with a C-terminal myc-myc-hexahistidine tag (human) (UniProt Q8NBP7); assay: SPR (Biacore), 37 °C; antibody captured on anti-human Fc surface, hPCSK9-mmH injected (3.125-50 nM); association at pH 7.4, dissociation at pH 7.4

B1: Comparator 7 (antibody, from another filing, IgG2, V domains shown)
VH: QVQLVQSGAEVKKPGASVKVSCKASGYTLTSYGISWVRQAPGQGLEWMGWVSFYNGNTNYAQKLQGRGTMTTDPSTSTAYMELRSLRSDDTAVYYCARGYGMDVWGQGTTVTVSS
VL: QSALTQPASVSGSPGQSITISCTGTSSDVGGYNSVSWYQQHPGKAPKLMIYEVSNRPSGVSNRFSGSKSGNTASLTISGLQAEDEADYYCNSYTSTSMVFGGGTKLTVLQ
B1 gave a t½ (dissociative half-life) [1] of 1.44 h, a Kd [2] of 0.205 nM and a koff [2] of 2.84e-05 s⁻¹. It also gave a kon [2] of 138000 M⁻¹ s⁻¹, a t½ [2] of 6.79 h and an IC50 [3] of 0.245 nM. It also gave a KD ratio pH 6.0/pH 7.4 [4] of 0.28, a ka ratio pH 6.0/pH 7.4 [4] of 1.65 and a kd ratio pH 6.0/pH 7.4 [4] of 0.47. The t½ ratio pH 6.0/pH 7.4 [4] was 2.15, the t½ (dissociative half-life) [5] was 1.19 h and the t½ (dissociative half-life) [6] was 1.47 h. For the same binder, the IC50 [7] was 0.331 nM, the IC50, LDL uptake in HepG2 cells, 2 nM hPCSK9-D374Y-mmH [8] was 0.97 nM and the IC50, LDL uptake in HepG2 cells, 50 nM MfPCSK9-mmH [9] was 10.4 nM. For the same binder, the IC50, LDL uptake in HepG2 cells, 50 nM hPCSK9-mmH [10] was 8.9 nM, the Kd [11] was 0.728 nM and the koff [11] was 6.09e-05 s⁻¹. The kon [11] was 83600 M⁻¹ s⁻¹, the t½ [11] was 3.16 h and the IC50 ratio (pH 5.75/pH 7.2) [12] was 1.3. For the same binder, the t½ (dissociative half-life) [13] was 1.5 h.
